From patent publication US20160168251A1 (MorphoSys, published 2016)

T1: human NPRA on HEK293 cells bound to ANP (human, UniProt P01160 124-151)
T1 construct: mature; Receptor-ligand complex on cells; also called HEK NPRA cells loaded with ANP; ANP-NPRA complex
T1 sequence: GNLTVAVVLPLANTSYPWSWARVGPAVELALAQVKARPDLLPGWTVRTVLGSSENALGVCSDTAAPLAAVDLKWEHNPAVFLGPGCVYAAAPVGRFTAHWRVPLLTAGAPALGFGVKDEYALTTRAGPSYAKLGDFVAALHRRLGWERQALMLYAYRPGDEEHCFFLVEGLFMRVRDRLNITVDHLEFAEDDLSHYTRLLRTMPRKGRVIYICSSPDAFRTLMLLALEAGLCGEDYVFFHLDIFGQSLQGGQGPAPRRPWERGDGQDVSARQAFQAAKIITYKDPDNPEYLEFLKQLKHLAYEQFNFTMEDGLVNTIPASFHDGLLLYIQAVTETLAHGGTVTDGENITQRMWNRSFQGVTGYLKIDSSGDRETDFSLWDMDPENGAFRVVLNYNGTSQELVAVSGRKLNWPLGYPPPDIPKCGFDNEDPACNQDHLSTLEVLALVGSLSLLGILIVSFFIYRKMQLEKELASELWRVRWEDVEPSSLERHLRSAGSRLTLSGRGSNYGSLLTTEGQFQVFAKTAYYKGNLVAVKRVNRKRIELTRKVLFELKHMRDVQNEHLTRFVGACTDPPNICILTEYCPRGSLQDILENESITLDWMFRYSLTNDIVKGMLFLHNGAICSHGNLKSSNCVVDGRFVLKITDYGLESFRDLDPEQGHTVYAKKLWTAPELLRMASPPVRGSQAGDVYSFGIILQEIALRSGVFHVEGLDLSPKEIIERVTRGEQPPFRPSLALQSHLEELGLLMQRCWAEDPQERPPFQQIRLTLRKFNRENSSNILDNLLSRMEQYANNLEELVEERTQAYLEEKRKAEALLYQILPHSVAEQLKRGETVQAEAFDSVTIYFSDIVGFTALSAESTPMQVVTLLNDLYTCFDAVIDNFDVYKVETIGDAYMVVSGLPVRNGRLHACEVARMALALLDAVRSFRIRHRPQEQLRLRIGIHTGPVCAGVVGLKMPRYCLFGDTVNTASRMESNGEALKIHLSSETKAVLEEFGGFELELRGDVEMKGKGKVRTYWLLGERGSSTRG
T1 sequence (peptide): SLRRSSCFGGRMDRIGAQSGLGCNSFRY

T2: human NPRC on HEK293 cells, without added ligand (human, UniProt P17342 27-541)
T2 construct: whole, on cells; also called HEK NPRC cells; natriuretic peptide receptor C
T2 sequence (looked up): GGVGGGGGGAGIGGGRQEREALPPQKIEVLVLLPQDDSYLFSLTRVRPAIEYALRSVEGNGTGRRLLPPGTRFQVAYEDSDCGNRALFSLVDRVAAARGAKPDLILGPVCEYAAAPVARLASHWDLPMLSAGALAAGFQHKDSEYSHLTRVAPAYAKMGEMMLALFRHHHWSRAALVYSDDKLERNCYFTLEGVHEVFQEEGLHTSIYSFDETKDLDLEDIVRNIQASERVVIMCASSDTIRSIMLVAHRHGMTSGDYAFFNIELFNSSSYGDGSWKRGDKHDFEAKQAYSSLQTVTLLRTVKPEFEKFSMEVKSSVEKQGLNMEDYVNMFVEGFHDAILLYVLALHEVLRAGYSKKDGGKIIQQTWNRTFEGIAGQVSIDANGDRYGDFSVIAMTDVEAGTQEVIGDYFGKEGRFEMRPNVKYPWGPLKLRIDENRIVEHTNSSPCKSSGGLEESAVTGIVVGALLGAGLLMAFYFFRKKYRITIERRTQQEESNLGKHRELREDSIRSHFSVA

T3: human NPRC on HEK293 cells in the presence of BNP (human, UniProt P17342 27-541; P16860 103-134)
T3 construct: whole, on cells;mature; also called HEK NPRC cells + 100 nM BNP
T3 sequence (looked up): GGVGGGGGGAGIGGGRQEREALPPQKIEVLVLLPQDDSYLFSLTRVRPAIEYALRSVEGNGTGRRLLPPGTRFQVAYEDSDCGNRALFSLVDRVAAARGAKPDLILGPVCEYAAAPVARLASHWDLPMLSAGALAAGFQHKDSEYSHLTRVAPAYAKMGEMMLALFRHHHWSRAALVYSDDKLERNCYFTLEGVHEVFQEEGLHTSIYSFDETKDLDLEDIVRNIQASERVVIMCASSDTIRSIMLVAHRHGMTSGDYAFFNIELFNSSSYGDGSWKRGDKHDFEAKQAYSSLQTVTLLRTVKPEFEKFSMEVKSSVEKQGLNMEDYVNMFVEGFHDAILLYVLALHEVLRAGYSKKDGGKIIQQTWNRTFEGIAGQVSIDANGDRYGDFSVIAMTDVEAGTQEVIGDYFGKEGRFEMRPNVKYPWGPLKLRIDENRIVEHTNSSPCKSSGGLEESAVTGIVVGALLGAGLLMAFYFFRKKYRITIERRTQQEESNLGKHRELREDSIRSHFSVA
T3 sequence (peptide, looked up): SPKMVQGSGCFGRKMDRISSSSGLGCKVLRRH

T4: human NPRC on HEK293 cells in the presence of ANP (human, UniProt P17342 27-541; P01160 124-151)
T4 construct: whole, on cells;mature; also called HEK NPRC cells + 100 nM ANP
T4 sequence (looked up): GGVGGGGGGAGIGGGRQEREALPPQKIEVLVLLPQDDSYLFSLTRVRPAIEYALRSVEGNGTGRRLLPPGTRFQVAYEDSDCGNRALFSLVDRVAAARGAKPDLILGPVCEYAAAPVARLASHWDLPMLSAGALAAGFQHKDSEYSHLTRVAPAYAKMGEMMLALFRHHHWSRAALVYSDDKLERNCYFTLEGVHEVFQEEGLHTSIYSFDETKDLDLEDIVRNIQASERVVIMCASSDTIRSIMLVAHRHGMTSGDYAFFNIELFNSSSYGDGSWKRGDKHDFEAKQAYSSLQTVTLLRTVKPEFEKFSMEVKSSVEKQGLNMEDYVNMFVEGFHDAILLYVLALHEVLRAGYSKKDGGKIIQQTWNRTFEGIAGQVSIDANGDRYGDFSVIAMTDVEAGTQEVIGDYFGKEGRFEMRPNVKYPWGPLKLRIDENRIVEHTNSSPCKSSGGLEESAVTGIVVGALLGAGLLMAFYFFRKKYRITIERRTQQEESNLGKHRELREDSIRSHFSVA
T4 sequence (peptide, looked up): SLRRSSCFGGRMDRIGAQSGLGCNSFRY

B1: 5502 IgG4_Pro (antibody, V domains shown)
VH: QVQLQQSGPGLVKPSQTLSLTCAISGDSVSSRSASWSWIRQSPGRGLEWLGRIYYRSKWYNDYAVSVKSRITINPDTSKNQFSLQLNSVTPEDTAVYYCARMDVPSFRYFDVWGQGTLVTVSS
VL: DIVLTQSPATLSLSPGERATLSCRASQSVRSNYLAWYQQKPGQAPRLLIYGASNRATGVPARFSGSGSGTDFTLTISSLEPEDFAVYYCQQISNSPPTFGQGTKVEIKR
notes: Human IgG4_Pro
B2: 5591 IgG4_Pro (antibody, V domains shown)
VH: QVQLQQSGPGLVKPSQTLSLTCAISGDSVSSRSASWSWIRQSPGRGLEWLGRTYYRSHWYYEYAQSVKSRITINPDTSKNQFSLQLNSVTPEDTAVYYCARMDVPSFRYFDVWGQGTLVTVSS
VL: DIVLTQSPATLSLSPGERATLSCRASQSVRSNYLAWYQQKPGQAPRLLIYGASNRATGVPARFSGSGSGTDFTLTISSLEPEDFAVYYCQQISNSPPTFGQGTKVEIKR
B3: 5592 IgG4_Pro (antibody, V domains shown)
VH: QVQLQQSGPGLVKPSQTLSLTCAISGDSVSSRSASWSWIRQSPGRGLEWLGRTYYRSHWYYEYAQSVKSRITINPDTSKNQFSLQLNSVTPEDTAVYYCARMDVPSFRYFDVWGQGTLVTVSS
VL: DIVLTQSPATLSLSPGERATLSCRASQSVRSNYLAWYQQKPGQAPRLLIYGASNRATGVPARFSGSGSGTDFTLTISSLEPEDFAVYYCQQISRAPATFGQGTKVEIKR

Columns and labels:
[1] = molecular target: T5, NPRA-Fc fusion protein bound to urodilatin (human, UniProt P01160 120-151); test: SPR (Biacore 3000), NPRA-Fc amine-coupled on CM5, IgG with 100 nM human urodilatin
T5 construct: Receptor-ligand complex; also called NPRA-Fc in the presence of urodilatin

[2] = molecular target: T1, human NPRA on HEK293 cells bound to ANP; test: FACS, IgG4_Pro on HEK NPRA cells in the presence of 100 nM ANP
Protocol: (§1) HEK NPRA cells are detached with Accutase (PAA Laboratories GmbH, Cat. No. L11-007, Austria), harvested by centrifugation (900 rpm, 4 minutes) and resuspended in FACS buffer (PBS/3% FCS/0.02% NaN3) to a final concentration of 10⁶ cells/ml. 100 μl of the cell suspension is transferred to each well of a 96 round bottom plate (TC Microwell 96U, Nunc). […] Cells are washed in 150 μl of FACS buffer, pelleted and resuspended in 50 μl of the solution containing the primary antibody comprising a BEL extract of Fabs, a diluted BEL extract or purified antibody diluted in FACS buffer and incubated on ice for 30 min. Cells are washed again in FACS buffer and resuspended in 50 μl of FACS buffer containing the secondary antibody (R-Phycoerythrin-conjugated Affipure F(ab′)₂ Fragment Goat Anti-Human IgG, Dianova) and incubated on ice for 45 min. Cells are washed twice with FACS buffer and resuspended in 200 μl of FACS buffer for analysis in the FACS Array (BD Biosciences).

[3] = molecular target: T2, human NPRC on HEK293 cells, without …; test: FACS, HEK NPRC cells without ligand
Protocol: as §1

[4] = molecular target: T1, human NPRA on HEK293 cells bound to ANP; test: cell-based or functional assay
[5] = molecular target: T1, human NPRA on HEK293 cells bound to ANP; test: cell-based or functional assay; remark: listed apart in the source
[6] = molecular target: T3, human NPRC on HEK293 cells in the …; test: FACS, HEK NPRC cells with 100 nM BNP
Protocol: as §1

[7] = molecular target: T6, NPRA-Fc fusion protein bound to BNP (human, UniProt P16860 103-134); test: SPR (Biacore 3000), NPRA-Fc amine-coupled on CM5, IgG with 100 nM human BNP
T6 construct: mature; Receptor-ligand complex; also called NPRA-Fc in the presence of BNP
Protocol: In another assay, the purified human NPRA-Fc fusion protein construct is used to develop a surface plasmon resonance (BIAcore) assay for determining affinity and kinetic constants for the antibodies. NPRA-Fc in 10 mM sodium acetate buffer, pH 5.5 is immobilized on a CM5 chip in a Biacore 3000 instrument (GE Healthcare, Biacore, Inc.) through amine coupling at a density of 1000 RU. […] The collected association and dissociation data from each experiment is globally fitted with the association (kₐ) and dissociation (kd) rates fit simultaneously.

[8] = molecular target: T7, NPRA-Fc fusion protein bound to ANP (human, UniProt P01160 124-151); test: SPR (Biacore 3000), NPRA-Fc amine-coupled on CM5, analyte with 100 nM human ANP
T7 construct: mature; Receptor-ligand complex; 'human ANP' is stated for Biacore, plain 'ANP' for ELISA and HXMS; also called NPRA-Fc+ANP

[9] = molecular target: T4, human NPRC on HEK293 cells in the …; test: FACS, HEK NPRC cells with 100 nM ANP
Protocol: as §1

Binder | Kd [1] [nM] | koff [1] [s⁻¹] | kon [1] [M⁻¹ s⁻¹] | EC50 [2] [nM] | binding result [3] | fold increase in the potency of ANP (cGMP, HEK NPRA cells, 200 nM IgG4_Pro) [4] [fold] | cGMP EC50 (nM), titration of the antibody on HEK NPRA cells with 200 pM ANP [5] [nM] | binding result [6] | Kd [7] [nM] | koff [7] [s⁻¹] | kon [7] [M⁻¹ s⁻¹] | Kd [8] [nM] | koff [8] [s⁻¹] | kon [8] [M⁻¹ s⁻¹] | binding result [9]
B1 | 0.211 | 0.000448 | 2.12e+06 | 0.68 | no binding (tested: 20 nM) | ≤ 10 | 2.1 | no binding (tested: 20 nM) | 0.413 | 0.000563 | 1.36e+06 | 0.172 | 0.000283 | 1.65e+06 | no binding (tested: 20 nM)
B2 | 0.0928 | 0.000238 | 2.56e+06 | 0.73 | no binding (tested: 20 nM) | ≤ 10 | 0.5 | no binding (tested: 20 nM) | 0.38 | 0.00102 | 2.69e+06 | 0.0275 | 0.000107 | 3.88e+06 | no binding (tested: 20 nM)
B3 | 0.0251 | 9.94e-05 | 3.96e+06 | 0.52 | no binding (tested: 20 nM) | ≤ 10 | 1 | no binding (tested: 20 nM) | 0.0459 | 0.00034 | 7.42e+06 | 0.011 | 0.000106 | 9.59e+06 | no binding (tested: 20 nM)
